Measured values taken from patent US20200207868A1 (UNIVERSITY OF SASKATCHEWAN, published 2020).

Key:
[1] = biological target: HER3 (as used in the biolayer interferometry of Example 2) (UniProt P21860 20-643, limits assumed); experiment: BLI
[2] = biological target: T1, recombinant human HER3-Fc chimera protein (R&D Systems) (human, UniProt P21860 20-643); experiment: BLI (Octet Red), antibody on AR2G sensor, HER3-Fc 10-263 nM, 1:1 fit
T1 construct: extracellular domain; Bought from R&D Systems; also called recombinant human HER3 extracellular domain; recombinant HER3; not shown: Fc part of the purchased chimera
T1 sequence (P21860 20-643, change not shown): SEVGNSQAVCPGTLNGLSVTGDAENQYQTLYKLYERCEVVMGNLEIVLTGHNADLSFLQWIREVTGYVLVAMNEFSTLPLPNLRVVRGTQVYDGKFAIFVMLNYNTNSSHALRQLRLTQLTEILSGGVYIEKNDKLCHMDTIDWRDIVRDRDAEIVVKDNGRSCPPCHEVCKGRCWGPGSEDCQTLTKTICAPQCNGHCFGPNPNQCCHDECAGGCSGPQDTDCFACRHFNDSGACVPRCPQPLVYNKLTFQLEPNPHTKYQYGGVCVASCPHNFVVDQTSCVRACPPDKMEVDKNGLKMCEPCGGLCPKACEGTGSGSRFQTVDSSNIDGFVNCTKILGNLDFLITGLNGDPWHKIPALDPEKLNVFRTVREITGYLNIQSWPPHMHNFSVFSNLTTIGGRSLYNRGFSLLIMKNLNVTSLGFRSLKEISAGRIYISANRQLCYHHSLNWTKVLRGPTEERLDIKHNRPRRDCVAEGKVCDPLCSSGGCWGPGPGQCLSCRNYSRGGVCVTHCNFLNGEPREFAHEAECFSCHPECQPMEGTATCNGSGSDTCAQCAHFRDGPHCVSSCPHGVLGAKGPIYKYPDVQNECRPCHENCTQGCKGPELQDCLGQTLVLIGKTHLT
Method: Binding kinetics were measured using an Octet Red instrument (ForteBio, Menlo Park, Calif.), following the manufacturer's protocol. Binding assays were performed in 96-well microtiter plates at 30° C. with sample plate orbital motion agitation at 1000 rpm. All washes, dilutions, and measurements were performed in phosphate buffered saline (PBS), pH 7.4. The IgG and antibody fragments were immobilized on amine-reactive second generation (AR2G) sensors using the manufacturer's protocol at pH 5 followed by quenching with 1 M ethanolamine, pH 8.5. […] Binding was monitored by placing sensors into wells for 5 min, followed by dissociation in PBS for 10 min. KD, kON, and kOFF were determined with ForteBio Data Analysis software v7.1.0.33 through locally fitting the processed data using a 1:1 binding model.

[3] = biological target: T1, recombinant human HER3-Fc chimera …; experiment: BLI, IRDye800CW-labeled antibody

HER3 (as used in the biolayer interferometry of Example 2), sequence (P21860 20-643 limits assumed): as the sequence (P21860 20-643, change not shown) above

Row | Binder | Kd [2] | koff [2] | kon [2] | Kd [3] | also measured
1 | anti-HER3 scFv (scFv, VL-(GGGGS)3-VH of HER3-3, expressed in E. coli) scFv: SDIQMTQSPSSLSASVGDRVTITCRASQGISNYLAWYQQKPGKAPKLLIYAASSLQSGVPSRFSGSRSGTDFTLTISSLQPEDFATYYCQQYGWLPLTFGQGTKVEIKGGGGSGGGGSGGGGSEISEVQLVESGGGLVQPGGSLRLSCAASGFTFSSYGMHWVRQAPGKGLEWVAVISYDGSNKYYADSVKGRFTISRDNSKNTLYLQMNSLRAEDTAVYYCARTDPYSLGGYYFDYWGQGTLVTVSS | 20 nM | 0.00054 s⁻¹ | 33000 M⁻¹ s⁻¹ | – | Kd [1]: 21.6 nM; koff [1]: 0.00127 s⁻¹; kon [1]: 60400 M⁻¹ s⁻¹
2 | anti-HER3 scFv labeled with IRDye800CW (scFv, IRDye800CW-NHS label, 1-2 dye molecules per fragment, sites not stated, m4 labelled with IRDye800CW; also called IRDye800CW-labeled scFv) scFv: SDIQMTQSPSSLSASVGDRVTITCRASQGISNYLAWYQQKPGKAPKLLIYAASSLQSGVPSRFSGSRSGTDFTLTISSLQPEDFATYYCQQYGWLPLTFGQGTKVEIKGGGGSGGGGSGGGGSEISEVQLVESGGGLVQPGGSLRLSCAASGFTFSSYGMHWVRQAPGKGLEWVAVISYDGSNKYYADSVKGRFTISRDNSKNTLYLQMNSLRAEDTAVYYCARTDPYSLGGYYFDYWGQGTLVTVSS | – | – | – | 29 nM | –
3 | anti-HER3 scFv-CH3 labeled with IRDye800CW (other, also called IRDye800CW-labeled scFv-CH3) SDIQMTQSPSSLSASVGDRVTITCRASQGISNYLAWYQQKPGKAPKLLIYAASSLQSGVPSRFSGSRSGTDFTLTISSLQPEDFATYYCQQYGWLPLTFGQGTKVEIKGGGGSGGGGSGGGGSEISEVQLVESGGGLVQPGGSLRLSCAASGFTFSSYGMHWVRQAPGKGLEWVAVISYDGSNKYYADSVKGRFTISRDNSKNTLYLQMNSLRAEDTAVYYCARTDPYSLGGYYFDYWGQGTLVTVSSEPKSCDKTHTCPPCPGQPREPQVYTLPPSREEMTKNQVSLTCLVKGFYPSDIAVEWESNGQPENNYKTTPPVLDSDGSFFLYSKLTVDKSRWQQGNVFSCSVMHEALHNHYTQKSLSLSPGK | – | – | – | 2.1 nM | –
4 | anti-HER3 diabody (other, VL-GGGGS-VH of HER3-3; bivalent (51.6 kDa), expressed in E. coli) SDIQMTQSPSSLSASVGDRVTITCRASQGISNYLAWYQQKPGKAPKLLIYAASSLQSGVPSRFSGSRSGTDFTLTISSLQPEDFATYYCQQYGWLPLTFGQGTKVEIKGGGGSEISEVQLVESGGGLVQPGGSLRLSCAASGFTFSSYGMHWVRQAPGKGLEWVAVISYDGSNKYYADSVKGRFTISRDNSKNTLYLQMNSLRAEDTAVYYCARTDPYSLGGYYFDYWGQGTLVTVSS | 3 nM | 0.00044 s⁻¹ | 150000 M⁻¹ s⁻¹ | – | –
5 | anti-HER3 diabody labeled with IRDye800CW (other, IRDye800CW-NHS label, 1-2 dye molecules per fragment, sites not stated, m5 labelled with IRDye800CW; also called IRDye800CW-labeled diabody) SDIQMTQSPSSLSASVGDRVTITCRASQGISNYLAWYQQKPGKAPKLLIYAASSLQSGVPSRFSGSRSGTDFTLTISSLQPEDFATYYCQQYGWLPLTFGQGTKVEIKGGGGSEISEVQLVESGGGLVQPGGSLRLSCAASGFTFSSYGMHWVRQAPGKGLEWVAVISYDGSNKYYADSVKGRFTISRDNSKNTLYLQMNSLRAEDTAVYYCARTDPYSLGGYYFDYWGQGTLVTVSS | – | – | – | 2.4 nM | –
